Reference: patent US20160326540A1, “Methods and Compositions Employing a Sulfonylurea-Dependent Stabilization Domain” (PIONEER HI-BRED INTERNATIONAL, INC., priority 2013, published 2016)

Columns and labels:
[1] = tested on: β-gal background activity; test: First and second round library screening (L1, L2) for induction by sulfonylurea ligands; type: cell-based; conditions: initial screen, library L1, data not shown
Excerpt: The original library was designed to thifensulfuron, but once induction activity was established with other SU compounds having potentially better soil and in planta stability properties than the original ligand, the evolution process was re-directed towards these alternative ligands. Of particular interest were herbicides metsulfuron, sulfometuron, ethametsulfuron and chlorsulfuron. For this objective, parental clones L1-9, -22, -29 and -44 were chosen for further shuffling. Clone L1-9 has strong activity on both ethametsulfuron and chlorsulfuron; clone L1-22 has strong sulfometuron activity; clone L1-29 has moderate metsulfuron activity; and clone L1-44 has moderate activity on metsulfuron, ethametsulfuron and chlorsulfuron. (Data not shown.). No clones found in the initial screen were exceptionally reactive to metsulfuron. These four clones were also chosen due to their relatively strong repressor activity, showing low β-gal background activity without inducer. Strong repressor activity is important for establishing a system which is both highly sensitive to the presence of inducer, and tightly off in the absence of inducer.
Based on the sequence information from parental clones L1-9, -22, -29 and -44, two second round libraries were designed, constructed and screened. The first library, L2, consisted of a ‘family’ shuffle whereby the amino acid diversity between the selected parental clones was varied using synthetic assembly of oligonucleotides to find clones improved in responsiveness to any of the four new target ligands.
The L2 oligonucleotides were assembled, cloned and screened as per the protocol described for library L1 except that each ligand was tested at 2 ppm to increase the stringency of the assay, which is a 10-fold reduction from 1st round library screening concentration.

E. coli KM3 = type: cell-based; conditions: for Control 84 hr (colony color intensity): M9 assay plates, no inducer (background activity), 84 hr at 30° C., ImageJ colony color intensity
Experimental: Library L6 was assembled, rescued, ligated into pVER7314, transformed into E. coli KM3 and plated out onto LB carbenicillin/kanamycin, and carbenicillin only control media as before. Library plates were then picked into 42 384-well microtiter plates (˜16,000 clones) containing 60 μl LB carbenicillin (Cb) broth per well. After overnight growth at 37° C. the cultures were stamped onto M9 assay plates containing no inducer, 0.2 ppm, and 2.0 ppm chlorsulfuron as test inducer. Following incubation at 30° C. for ˜48 hrs, putative hits responding to chlorsulfuron treatment as determined by increased blue colony color were re-arrayed into six 96-well microtiter plates and used to stamp a fresh set of M9 assay plates to confirm the above results. For a more detailed analysis of the relative induction by chlorsulfuron, digital photographs were taken of the plates after various time points of incubation at 30° C. and colony color intensity measured using the digital image analysis freeware program ImageJ (Rasband, US National Institutes of Health, Bethesda, Md., USA, rsb.info.nih.gov/ij/, 1997-2007). […] From this analysis sequence-activity relationships were derived. […] Briefly, C at position 100, and Q at positions 108 and 109 strongly correlated with activation, while R at position 138, L at position 170, and A or G at position 173 were highly preferred in clones with the lowest background activity. […] This information will aid in the design of further libraries to improve responsiveness to chlorsulfuron. […]
Library CsL3 construction and screening: Based on the IVM results the top performing residue substitutions were incorporated into library CsL3 (Table 14). The library was assembled with the oligonucleotides shown below in Table 19. The first and last primers in each set were used as rescue primers. To enable purification of hit proteins, a 6×His-tag between was added to the C-terminus of the ligand binding domain of each clone during the assembly and rescue process. The library was then inserted into pVER7334 SacI/AscI, transformed into E. coli assay strain Km3 and selected on LB+40 ug/ml Kanamycin and 50 ug/ml Carbenicillin. […] Colony color was then assessed at 24 and 96 hrs of incubation at 37° C. […] Also, while the C86M substitution was less frequent in the overall hit population it occurred in all top 26 clones.
Creating novel diversity through random mutagenesis.
Construction and screening of library CsL4.2.

Molecule | Control 84 hr (colony color intensity) (E. coli KM3) | further results
L1-22: first round library L1 sulfonylurea repressor parental clone (protein, Sulfonylurea responsive repressor, first round library L1 sulfonylurea repressor parental clone) MGSRLDKSKVINSALELLNEVGIEGLTTRKLAQKLGVEQPTLYWHVKNKRALLDALAIEMMDRHHTHFCPLEGESWQDFLRNTAKSYRCALLSHRDGAKVCLGTAITEKQYETKENNLAFLCQQGFSLENALYARQAVRVFTLGCVLFDQEMQVAKEERETPTTDSMPPLLRQASELLDHQGAEPAFLFGLELIICGLEKQLKSESGS | – | sulfometuron activity [1]: strong
L1-44: first round library L1 sulfonylurea repressor parental clone (protein, Sulfonylurea responsive repressor, first round library L1 sulfonylurea repressor parental clone) MGSRLDKSKVINSALELLNEVGIEGLTTRKLAQKLGVEQPTLYWHVKNKRALLDALAIEMLDRHATHFCPLEGESWQDFLRNNAKSYRCALLSHRDGAKVYLGTAVTEKQYETAENQLAFLCQQGFSLENALYAVKAVAGFTLGCVLWDQESQVAKEERETPTTASMPPLLRQAVELADHQGAEPAFLFGLELIICGLEKQLKCESGS | – | activity on chlorsulfuron [1]: moderate; activity on ethametsulfuron [1]: moderate; metsulfuron activity [1]: moderate
L6-1B03 (protein, Sulfonylurea responsive repressor) MGSRLDKSKVINSALELLNEVGIEGLTTRKLAQKLGVEQPTLYWHVKNKRALLDALAIEMMDRHATHICPLEGESWQDFLRNNAKSMRCALLSHRDGAKVCLGTRWTEQQYEAAENMLAFLCQQGFSLENALYAVSAVRVFTLGCVLFDQESQVAKEERETPTTASMPPLLRQAWELKDHQGAEPAFLFGLELIICGLEKQLKCESGS | 6.6 | –
L6-2C09 (protein, Sulfonylurea responsive repressor) MGSRLDKSKVINSALELLNEVGIEGLTTRKLAQKLGVEQPTLYWHVKNKRALLDALAIEMMDRHQTHYCPLEGESWQDFLRNTAKSMRCALLSHRDGAKVCLGTRWTEQLYETAENQLAFLCQQGFSLENALYAMSAVRVFTLGCVLFDQELQVAKEERETPTTASMPPLLRQAWELKDHQGAEPAFLFGLELIICGLEKQLKCESGS | 5.2 | –
L6-3H02 (protein, Sulfonylurea responsive repressor) MGSRLDKSKVINSALELLNEVGIEGLTTRKLAQKLGVEQPTLYWHVKNKRALLDALAIEMMDRHATHYCPLEGESWQDFLRNTAKSMRCALLSHRDGAKVCLGTRWTEQHYESAENMLAFLCQQGFSLENALYAVSAVRVFTLGCVLFDQESQVAKEERETPTTASMPPLVRQAWELKVHQGAEPAFLFGLELIICGLEKQLKCESGS | 5.6 | –
L6-5G06 (protein, Sulfonylurea responsive repressor) MGSRLDKSKVINSALELLNEVGIEGLTTRKLAQKLGVEQPTLYWHVKNKRALLDALAIEMMDRHQTHYCPLEGESWQDFLRNNAKSMRCALLSHRDGAKVCLGTRWTEQQYETAENQLAFLCQQGFSLENALYAVSAVRVFTLGCVLFDQELQVAKEERETPTTASMPPLLRQGWELKDHQGAEPAFLFGLELIICGLEKQLKCESGS | 7.0 | –
L6-6F07 (protein, Sulfonylurea responsive repressor) MGSRLDKSKVINSALELLNEVGIEGLTTRKLAQKLGVEQPTLYWHVKNKRALLDALAIEMMDRHATHLCPLEGESWQDFLRNTAKSMRCALLSHRDGAKVCLGTRWTEQQYESAENMLAFLCQQGFSLENALYAMSAVRVFTLGCVLFDQESQVAKEERETPTTASMPPLLRQAWELKDHQGAEPAFLFGLELIICGLEKQLKCESGS | 5.1 | –
L6-5H12 (protein, Sulfonylurea responsive repressor) MGSRLDKSKVINSALELLNEVGIEGLTTRKLAQKLGVEQPTLYWHVKNKRALLDALAIEMMDRHATHYCPLEGESWQDFLRNNAKSMRCALLSHRDGAKVCLGTRWTEKQYETAENQLAFLCQQGFSLENALYAMSAVRVFTLGCVLFDQELQVAKEERETPTTASMPPLVRQAWELKDHQGAEPAFLFGLELIICGLEKQLKCESGS | 5.7 | –
L6-4D10: library L6 clone, parent of the L8 hits (protein, Sulfonylurea responsive repressor, library L6 clone, parent of the L8 hits) MGSRLDKSKVINSALELLNEVGIEGLTTRKLAQKLGVEQPTLYWHVKNKRALLDALAIEMMDRHQTHYCPLEGESWQDFLRNNAKSMRCALLSHRDGAKVCLGTRWTEKQYESAENMLAFLCQQGFSLENALYAVSAVRVFTLGCVLFDQESQVAKEERETPTTASMPPLLRQAWELKDHQGAEPAFLFGLELIICGLEKQLKCESGS | 5.0 | –
L6-5H06 (protein, Sulfonylurea responsive repressor) MGSRLDKSKVINSALELLNEVGIEGLTTRKLAQKLGVEQPTLYWHVKNKRALLDALAIEMMDRHQTHICPLEGESWQDFLRNNAKSMRCALLSHRDGAKVCLGTRWTEKQYETAENMLAFLCQQGFSLENALYAVSAVRVFTLGCVLFDQELQVAKEERETPTTASMPPLVRQAWELKDHQGAEPAFLFGLELIICGLEKQLKCESGS | 5.1 | –
L6-2D07 (protein, Sulfonylurea responsive repressor) MGSRLDKSKVINSALELLNEVGIEGLTTRKLAQKLGVEQPTLYWHVKNKRALLDALAIEMMDRHQTHFCPLEGESWQDFLRNTAKSMRCALLSHRDGAKVCLGTRWTEQQYETAENMLAFLCQQGFSLENALYAMSAVRVFTLGCVLFDQESQVAKEERETPTTASMPPLVRQAWELKDHQGAEPAFLFGLELIICGLEKQLKCESGS | 5.8 | –
L6-5F05 (protein, Sulfonylurea responsive repressor) MGSRLDKSKVINSALELLNEVGIEGLTTRKLAQKLGVEQPTLYWHVKNKRALLDALAIEMMDRHATHICPLEGESWQDFLRNNAKSMRCALLSHRDGAKVCLGTRWTEQQYEAAENQLAFLCQQGFSLENALYAVSAVRVFTLGCVLFDQELQVAKEERETPTTASMPPLLRQAWELKDHQGAEPAFLFGLELIICGLEKQLKCESGS | 5.4 | –
L1-29: first round library L1 sulfonylurea repressor parental clone (protein, Sulfonylurea responsive repressor, first round library L1 sulfonylurea repressor parental clone) MGSRLDKSKVINSALELLNEVGIEGLTTRKLAQKLGVEQPTLYWHVKNKRALLDALAIEMMDRHQTHFCPLEGESWQDFLRNTAKSMRCALLSHRDGAKVWLGTRWTEKQYETPENMLAFLCQQGFSLENALYAWSAVCNFTLGCVLSDQERQVAKEERETPTTDSMPPLLRQAWELSDHQGAEPAFLFGLELIICGLEKQLKCESGS | – | metsulfuron activity [1]: moderate
L8-3F01: library L8 chlorsulfuron repressor hit, parent for saturation mutagenesis and CsL3 (protein, Sulfonylurea responsive repressor, library L8 chlorsulfuron repressor hit, parent for saturation mutagenesis and CsL3) MARLDKSKVINSALELLNEVGIEGLTTRKLAQKLGVEQPTLYWHVKNKRALLDALAIEMMDRHQTHYLPLEGESWQDFLRNNAKSCRRALLSHRDGAKVCLGTRWTEQQYETAENMLAFLTQQGFSLENALYAVSAVRVFTLGAVLFDQESQVAKEERETPTTDSMPPLLRQAWELKDHQGAEPAFLFGLELIIAGLEKQLKRESGS | – | F.IND = fold induction (IND/REP) (Colony Assay Results) (E. coli KM3; CsL3 hits, 20 ppb Cs vs no inducer): 2.5
